Reference: US20160297863A1 (WAKE FOREST UNIVERSITY HEALTH SCIENCES, published 2016)

Target: EphA2 receptor on GBM cells (human, UniProt P29317 24-976)
Assay: cell-based or functional assay

EphA2 receptor on GBM cells, sequence (P29317 24-976): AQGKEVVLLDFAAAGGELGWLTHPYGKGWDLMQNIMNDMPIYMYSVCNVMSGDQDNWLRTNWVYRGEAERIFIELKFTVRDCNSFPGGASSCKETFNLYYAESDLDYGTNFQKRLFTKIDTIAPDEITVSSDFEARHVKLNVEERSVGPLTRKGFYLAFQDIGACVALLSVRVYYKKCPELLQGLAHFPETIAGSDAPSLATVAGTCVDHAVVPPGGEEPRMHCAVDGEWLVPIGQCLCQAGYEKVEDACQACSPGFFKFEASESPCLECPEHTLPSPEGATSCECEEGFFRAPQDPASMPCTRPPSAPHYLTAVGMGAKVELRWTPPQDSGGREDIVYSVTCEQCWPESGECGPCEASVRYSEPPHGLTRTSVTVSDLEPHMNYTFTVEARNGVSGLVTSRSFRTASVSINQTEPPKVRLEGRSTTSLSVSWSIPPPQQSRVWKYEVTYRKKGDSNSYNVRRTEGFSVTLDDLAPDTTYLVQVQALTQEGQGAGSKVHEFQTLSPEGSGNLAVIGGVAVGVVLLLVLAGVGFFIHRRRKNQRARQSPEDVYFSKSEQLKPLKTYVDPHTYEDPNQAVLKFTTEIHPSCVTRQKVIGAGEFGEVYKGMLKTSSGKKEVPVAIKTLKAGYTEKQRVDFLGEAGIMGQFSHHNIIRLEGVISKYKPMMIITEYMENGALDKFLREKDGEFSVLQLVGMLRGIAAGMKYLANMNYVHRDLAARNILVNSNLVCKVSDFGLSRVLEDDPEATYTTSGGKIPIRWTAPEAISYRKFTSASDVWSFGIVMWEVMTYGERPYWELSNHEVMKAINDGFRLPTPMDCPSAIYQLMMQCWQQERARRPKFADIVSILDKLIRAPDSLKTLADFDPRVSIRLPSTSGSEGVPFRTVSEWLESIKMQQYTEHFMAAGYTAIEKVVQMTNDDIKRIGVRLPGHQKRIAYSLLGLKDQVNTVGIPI

B1: eA5-PE-C (eA5-Fc chemically conjugated to PE38QQR, glycosylated form) (other)
chain: QDPGSKAVADRYAVYWNSSNPRFQRGDYHIDVCINDYLDVFCPHYEDSVPEDKTERYVLYMVNFDGYSACDHTSKGFKRWECNRPHSPNGPLKFSEKFQLFTPFSLGFEFRPGREYFYISSAIPDNGRRSCLKLKVFVRPTNSCMKTIGVHDRVFDVNDKVENSLEPADDT
IC50, GBM tumor cell killing (cell viability assay): ~10 pM
